In PMC2855162 (Molecular cell, 2010):
One block for each molecule: values may come before it.

B1: His-TRAF2 (domain or fragment, human)
chain: SELLQRCESLEKKTATFENIVCVLNREVERVAMTAEACSRQHRLDQDKIEALSSKVQQLERSIGL

Columns and labels:
His-Smt3-TRAF1 (human) = biological target: T1, His-Smt3-TRAF1 (human); assay: SEC-MALS
T1 sequence (Q13077 whole entry, looked up): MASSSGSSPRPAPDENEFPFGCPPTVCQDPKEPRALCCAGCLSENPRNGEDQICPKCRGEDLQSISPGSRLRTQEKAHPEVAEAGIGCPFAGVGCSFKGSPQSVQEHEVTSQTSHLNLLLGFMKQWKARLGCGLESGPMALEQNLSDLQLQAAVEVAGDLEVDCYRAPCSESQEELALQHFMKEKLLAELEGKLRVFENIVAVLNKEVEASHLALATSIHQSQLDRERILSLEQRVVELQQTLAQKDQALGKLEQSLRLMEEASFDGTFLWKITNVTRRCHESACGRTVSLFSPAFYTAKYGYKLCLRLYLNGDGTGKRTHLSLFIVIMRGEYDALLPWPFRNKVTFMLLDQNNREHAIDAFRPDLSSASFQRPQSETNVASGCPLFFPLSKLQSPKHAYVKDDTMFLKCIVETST

SEC-MALS = biological target: the molecule itself; assay: SEC-MALS
His-TRAF2 = biological target: B1; assay: pull-down
[1] = biological target: T2, TRAF2 construct containing residues 266-329 (human, UniProt Q12933 266-329); assay: SEC-MALS
T2 sequence (looked up): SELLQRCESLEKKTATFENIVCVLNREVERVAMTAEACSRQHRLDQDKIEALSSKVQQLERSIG

stoichiometry N (His-Smt3-TRAF1 (human)): 3
Molecule: His-Smt3-TRAF1 (domain or fragment)

Molecule: B1
stoichiometry N (SEC-MALS): 3
stoichiometry N (TRAF2 per TRAF1) (His-Smt3-TRAF1 (human)): 2

stoichiometry N (His-TRAF2): ~2 TRAF2 per TRAF1
B2: untagged TRAF1 (co-expressed with His-tagged TRAF2 and cIAP2) (domain or fragment, human)
chain: FMKEKLLAELEGKLRVFENIVAVLNKEVEASHLALATSIHQSQLDRERILSLEQRVVELQQTLA

stoichiometry N [1]: 3 TRAF2 molecules per cIAP2 BIR1 molecule
B3: cIAP2 BIR1 domain (residues 26-99), non-tagged (domain or fragment, human, UniProt Q13489 26-99, looked up)
chain: LSCELYRMSTYSTFPAGVPVSERSLARAGFYYTGVNDKVKCFCCGLMLDNWKRGDSPTEKHKKLYPSCRFVQSL
